Laboratory results reported in doi:10.1101/2020.12.28.424526 (bioRxiv, 2020).

B1: recombinant miRNasome-1.4 (natural protein, C. elegans, UniProt Q17426 1-577, looked up)
chain: METEFGLTEYASEHTITPVPCLLKEMYSDFIVQEILADHTVLAIPSPDVVLESTGSKKEDIEIEECVAKPDCISEETLAALNDRFSTKGDPVLVKVDDLSKEDRKSIHHFIRERYAGVLITETKEDGILVSHGHTKSSRKRKLWDEKVPKECHFTICKENKETSFACQLIAKFLNVGPNNIRTHGIKDKRAVTSQRVSVTKVHERTILDLNSKLRGIRVFGCEYKDDPVQMGAHWGNRFSIVLRSLPDDSEQLLHQRLETFQNTGFINYFGTQRFGSRSSTTAEIGLAIVKRDWEKAVKMIMTNAMPDHLGYGSVGYAAKCFSQTGDARKAFSKLKGAQAFATVEGNILKCLSKGGTWQNCITEAIPIQSRSLYVHAYQSLIWNKVASRRVKEYGTRVHESDVGANGFSLGEHATHYDIHIPLPGENLPFEGSYGAKWISELLEEDGLTQSSFTALKDRFSLGESSRCLFVEAKELKWKFIRYGNARDLLQDGLQTRAIPEAEQKGPLLALQIQFSLISGSYATVALREVTGSDMGKKAMRDASFKTRGDDEKTEENVLEEKGSDDANELNLVSEDQ
B2: partner of XRN two-1 (PAXT-1) (natural protein, C. elegans (endogenous in worm lysate), UniProt Q21738 1-335, looked up)
chain: MGKLEDVEAEKKLWESDDAWELRKAFMLAHYDDYPKIQLQCLSQLFINVTLLGCEYSQTLMQKIRTMGAGIAANKDRTKTGSYVKASAAKKRQAVKTSDLEGASDESKKVKMEKSPSPVARESFDERLGKLKASLAMTPHHLTGEQMMKTATNSCLMKWHVNKINQKIEITIDRYVAFRHTFSQYCVDPRDCAINTLIESILSCDAAVHEESYEIRFDGVPVDECYAKSVTRRLAKIKSAVSNGAHTVKGLTTYLDAVNMSMIQNTQKLEGWSQQLDLVTADLLLSSRVLSSTECTKPAMATIANQMSEDVCQLILNDKINVINSMKSHSSLAFQ
B3: recombinant PAXT-1 (natural protein, C. elegans, UniProt Q21738 1-335, looked up)
chain: B2 chain
B4: recombinant NOL-58 (natural protein, C. elegans, UniProt O45012 1-487, looked up)
chain: MLVLFEVAAGYAVFKLSNEKKLKNVDNIWEEFSTAEKAQENLQLVSFKKFKTTAGAVEATSEITEGKLSKTLKKLLKSSVDETEKLAVGDAKLGNLIKEKLSLNCVHDSSINELMRGVRAHIEDLLAEHKEEMNAMNLAVAHSLARYKVKFNPEKIDTMIVQAVSLLDDLDKELNNYVMRVREWYGWHFPELGKTIQDHQAYAKIIKAIGMRQNCINTDLSSILPEELEEKVKEDAEISMGTDISDIDLIHIKGLCDQVIELSAYRAQLFDYLKNRMTALAPNLTVLLGELVGARLISHAGSLVSLAKAPASTIQILGAEKALFRALKTKKDTPKYGLIYHAQLITQAPPKVKGKMARKLAAKCSLATRIDALSDESATNEIGIECRAALENVLRTESERGPSKNKSFGSHRHDKYEFKSETYEYDASADTPASRKHKRFDDNEESTNAIKKMKIEEVKEEDEAEPEKKKKKKEKKAKKADTDSDEE

Assays:
[1] = molecular target: 5'-3' exoribonuclease-2 (XRN-2) (C. elegans (endogenous in worm lysate)) (UniProt Q9U299); assay: SDS-PAGE of the RNA-affinity purified complex
recombinant XRN-2 = molecular target: T1, recombinant XRN-2 (C. elegans, UniProt Q9U299 1-975)
T1 sequence (looked up): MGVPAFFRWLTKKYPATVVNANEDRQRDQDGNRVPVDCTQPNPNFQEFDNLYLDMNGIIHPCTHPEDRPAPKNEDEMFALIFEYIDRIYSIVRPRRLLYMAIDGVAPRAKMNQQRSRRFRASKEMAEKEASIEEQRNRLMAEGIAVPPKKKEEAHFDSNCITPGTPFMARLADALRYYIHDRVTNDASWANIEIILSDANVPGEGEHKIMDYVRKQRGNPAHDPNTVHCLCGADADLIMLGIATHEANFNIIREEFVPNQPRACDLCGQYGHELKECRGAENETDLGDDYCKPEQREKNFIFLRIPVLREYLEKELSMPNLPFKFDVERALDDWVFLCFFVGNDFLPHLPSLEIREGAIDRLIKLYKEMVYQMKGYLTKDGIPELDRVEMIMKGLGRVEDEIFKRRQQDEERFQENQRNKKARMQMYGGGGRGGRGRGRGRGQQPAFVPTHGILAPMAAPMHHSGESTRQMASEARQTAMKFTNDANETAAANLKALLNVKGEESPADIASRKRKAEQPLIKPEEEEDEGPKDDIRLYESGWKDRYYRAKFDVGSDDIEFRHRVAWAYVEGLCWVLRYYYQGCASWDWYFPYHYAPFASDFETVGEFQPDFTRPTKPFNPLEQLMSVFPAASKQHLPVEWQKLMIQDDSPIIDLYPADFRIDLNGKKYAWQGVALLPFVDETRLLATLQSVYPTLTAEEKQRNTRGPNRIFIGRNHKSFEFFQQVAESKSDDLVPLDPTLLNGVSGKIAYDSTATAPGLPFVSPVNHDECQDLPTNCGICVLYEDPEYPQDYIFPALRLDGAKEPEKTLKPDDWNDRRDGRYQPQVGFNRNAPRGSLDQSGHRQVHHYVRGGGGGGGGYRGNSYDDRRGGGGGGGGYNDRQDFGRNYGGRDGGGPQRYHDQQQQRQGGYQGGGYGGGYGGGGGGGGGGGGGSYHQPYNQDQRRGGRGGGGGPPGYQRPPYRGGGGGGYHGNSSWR

[2] = molecular target: T2, 5'-3' exoribonuclease-2 (XRN-2) (C. elegans (endogenous in worm lysate), UniProt Q9U299 1-975); assay: SDS-PAGE of the RNA-affinity purified complex
T2 sequence (looked up): T1 sequence (looked up)

| Molecule | stoichiometry N [1] | stoichiometry N (recombinant XRN-2) | other results |
| --- | --- | --- | --- |
| miRNasome-1.4 (B0024.11) (natural protein) | 1 |  |  |
| NOL-58 (natural protein) | 1 |  |  |
| B1 |  | 1 |  |
| B2 |  |  | stoichiometry N [2]: 1 |
| B3 |  | 1 |  |
| B4 |  | 1 |  |
